From the DeepSol protein solubility set

Assay: soluble on expression in E. coli; label from the status in PepcDB or PDB records

Sequence | soluble on expression in E. coli
HMTHIDDYSTWDIVKATQYGIYERCRELVEAGYDVRQPDKENVTLLHWAAINNRIDLVKYYISKGAIVDQLGGDLNSTPLHWATRQGHLSMVVQLMKYGADPSLIDGEGCSCIHLAAQFGHTSIVAYLIAKGQDVDMMDQNGMTPLMWAAYRTHSVDPTRLLLTFNVSVNLGDKYHKNTALHWAVLAGNTTVISLLLEAGANVDAQNIKGESALDLAKQRKNVWMINHLQEARQAKGYDN | soluble
MLFCPLLLIFLIANSNGEPLPPDMKDLQNHLDTFQKAVDTGDKKALREMMPVNQRISEEKLDEFIKTRKSFKMTAKSAQATSSGITGKVDYAIGKATLLLDVVLEKSSSSPSAYKFVSISKQSIPSQRREIPDCFYTLLIMCPYDLIVALAQTAENVLKG | not soluble
SLNGKYATLKDVAKLAGTTASTVSYVLNDSKERYISDEMRRRVLEAAKDLNYVKCSVASSLKGEKRKIIAVLVPQFSNQFFTRIILAIENVADQFDYVLTIYNTFDDPKREKVIINRMAQHRMDGYIIIPTYEGVKNTEQLRKIGIPMVVMDRPLEGIDDFIWVTTNNYQCGYKGAHYLALKGHRNIAFIGWNSRINDLDSRKNGFWDALAASGITSEEAIVIDGEFSEEDGYKMTKNLLKTRPDITAIFYGYNVQAQGGVRYLMKENIEIGKDISVMLIGSPEWAVTGYNNFTHIEQDEYNLGKSAATILFSIINGENQENIQNIIQDCSLYEGNSVYDITKEG | soluble
MSLNKQDKKWRVLVVDDDADVLTNTVYTLMDLKVLGRELDITTLGSATAAIELLERERDFAVILLDVVMEKPHAGLSLVTMIRHDFNMQMSRIILRTGNPGYAPERDITLKLEIDDYILKQTAVRDRIITAVIVAIRAYDQLQRLARLKDAMQQIICCSNQLLTTDEIDQFANVCMQYVAPIFGKNAGGGLAYAGMTVNQGIVPLTVMSATSEHESLIEPLNGEGHHHHHH | not soluble
MLKELEVNGKRFFLAPESNFWAIGEREEVERFYRERKDALLEEMQRYRFEVDIRTAYINPTESCNRNCPYCYIPAEIRERGTKMSYEKLEEILTVLAENGVERVIFHGAEPLMVKDEIFRAMEDFDFKYGIQTNATLLEEEDAELLMKKGASVGISLDSPYKETNDYLRGKGHYDAVMRALDFFDGYRSLNIIMTVNKHNFQHLPAMVDFLAGKVSVMLANPVRGTSPGGRELRPPEGFEDYYIKAIDRAIENTKSGRRIVIGDFANILLGLVAPTSRVLQCDISPCGGGRRFFAVSADGIYPCGEFIGMEEFRANLSALSDWSSLIEKFEVVRKRTVEQIEECRNCEFRNLCGAPCPAEIYAESGTMLRKSPYCEFYKKLALKAMDVIARGDVRNVLKLERMKAIYRVEDF | not soluble
MSLKIKVGLIFSGIACLFLTACVNQVKQNTTFENTLTQKYCGDDFFNQNLEKIKKNDDVIYTGLNAGLIARNCGDFNKSNVFFDAVEESYKYDVDLENVSPKAAKFIGTTLLNDNIVDYDGSLYERIMVNIYKALNYMEEDDYENARVEFNRVLMRQDKAKEYFAKEIEKNRADLDKAKEDKNYDKNMNENSKVIEAQYDNLFKEFDTTKNFINPYATYLASIFFFMDKDYRKAADLFREVAIIYPKNKTIKKEAKIFKEYATKIKVKKAKKYVFVVYENGFGVVKDEFALTLPFIVDKKIISTNIALQTLKKREASFANLNINGQNTNDFVDLDNIVATEFKINMPAMIAKALAQTIIKTTLNVAVANNDSTGGWLSLATAVATAATNKADVRSWRGLPKSIAIATIENDGNLEIKDPQGNILFQKSLDKNKNALVIVRSFAPYLPASVAIMEKEGHHHHHH | not soluble
MAHHHHHHMSVSRFRHSTGHVAKPQRHLLNVTSSTALWDGSNTISCNDKFVAVPWQTFGGTAVFKHDTFGRLAPNPPLVLGQKGQIIDVKFDPFNDQKLFTASEDGSIFGWGIPAEGLQSNILSPLVELKGHNKKCGIISFHPSANGVLASAGVDRVIKVWDVERGTAVNTISSLSDYATGLEWNLRGSLFCVASRDKTLRVIDPRDCTVVSSVESHASARSQRCIWCKRKDTIMTLGCSKSQQRQIKLWDTRKMESPYSVTELDQSSAAFIPMYDEDLNLLILGSKGENNVKCFELMNEGLTFSYEVNSNDPMKGLCMMPKWSLDVKKCEFGRLYQLTYHSLFTIEMLLPRKQSCTEFQGDVFPSTFADHSAMSADEFFRGANADPREYDLSGMFDGHSPRLMGGSTPSPEKLPVAVQAAKPLMEAPKGETTTGREKSSVSVPESSEATSAPSDDKTEKHADPCADMTQRDILDKQRRLQELSEKVRTCHHEISALRKALHEKEAEMLQVLEDIQSI | not soluble
